According to US10813913B2, “Small molecules that mimic or antagonize actions of granulocyte colony-stimulating-factor (G-CSF)” (UNIVERSITY OF SOUTH FLORIDA, priority 2016, dated 2020):
Values joined by “and” are separate entries in the source; they are usually repeats but may differ in a detail not shown here. Identical values can stand only once. “Also recorded” adds a separate entry of the source.

T1: G-CSF receptor on monocytic (THP-1) cells (Homo sapiens, UniProt Q99062)
T1 construct: Both cell lines are known to express the G-CSF-R; host or cells: THP-1 (human monocytic cell line), intact cells
T1 sequence (Q99062 25-836): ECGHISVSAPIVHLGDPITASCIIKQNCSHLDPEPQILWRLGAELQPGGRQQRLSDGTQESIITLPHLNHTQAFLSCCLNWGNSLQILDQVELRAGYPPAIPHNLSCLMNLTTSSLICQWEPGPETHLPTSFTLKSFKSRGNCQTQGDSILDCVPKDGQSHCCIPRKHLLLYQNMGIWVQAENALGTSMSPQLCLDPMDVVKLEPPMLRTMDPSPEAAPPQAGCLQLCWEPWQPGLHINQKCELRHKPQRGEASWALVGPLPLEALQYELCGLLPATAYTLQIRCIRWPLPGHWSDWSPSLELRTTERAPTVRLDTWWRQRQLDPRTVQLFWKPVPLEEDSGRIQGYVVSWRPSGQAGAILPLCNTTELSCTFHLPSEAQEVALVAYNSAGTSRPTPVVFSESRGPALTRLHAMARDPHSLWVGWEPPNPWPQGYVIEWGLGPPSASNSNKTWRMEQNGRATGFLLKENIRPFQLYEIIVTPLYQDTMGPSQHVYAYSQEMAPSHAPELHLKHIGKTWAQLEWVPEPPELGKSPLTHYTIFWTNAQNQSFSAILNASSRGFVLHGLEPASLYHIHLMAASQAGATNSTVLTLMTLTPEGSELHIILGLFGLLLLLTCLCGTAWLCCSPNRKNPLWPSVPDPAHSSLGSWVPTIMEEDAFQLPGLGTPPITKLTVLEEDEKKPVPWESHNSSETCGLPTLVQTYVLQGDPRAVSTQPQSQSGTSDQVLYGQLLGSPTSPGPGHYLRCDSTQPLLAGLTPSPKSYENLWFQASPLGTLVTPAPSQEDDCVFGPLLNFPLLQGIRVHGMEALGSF

T2: G-CSF receptor on neuronal (SH-SY5Y) cells (Homo sapiens, UniProt Q99062)
T2 construct: Both cell lines are known to express the G-CSF-R; host or cells: SH-SY5Y (human neuroblastoma cell line, adherent cells), intact cells
T2 sequence (Q99062 25-836): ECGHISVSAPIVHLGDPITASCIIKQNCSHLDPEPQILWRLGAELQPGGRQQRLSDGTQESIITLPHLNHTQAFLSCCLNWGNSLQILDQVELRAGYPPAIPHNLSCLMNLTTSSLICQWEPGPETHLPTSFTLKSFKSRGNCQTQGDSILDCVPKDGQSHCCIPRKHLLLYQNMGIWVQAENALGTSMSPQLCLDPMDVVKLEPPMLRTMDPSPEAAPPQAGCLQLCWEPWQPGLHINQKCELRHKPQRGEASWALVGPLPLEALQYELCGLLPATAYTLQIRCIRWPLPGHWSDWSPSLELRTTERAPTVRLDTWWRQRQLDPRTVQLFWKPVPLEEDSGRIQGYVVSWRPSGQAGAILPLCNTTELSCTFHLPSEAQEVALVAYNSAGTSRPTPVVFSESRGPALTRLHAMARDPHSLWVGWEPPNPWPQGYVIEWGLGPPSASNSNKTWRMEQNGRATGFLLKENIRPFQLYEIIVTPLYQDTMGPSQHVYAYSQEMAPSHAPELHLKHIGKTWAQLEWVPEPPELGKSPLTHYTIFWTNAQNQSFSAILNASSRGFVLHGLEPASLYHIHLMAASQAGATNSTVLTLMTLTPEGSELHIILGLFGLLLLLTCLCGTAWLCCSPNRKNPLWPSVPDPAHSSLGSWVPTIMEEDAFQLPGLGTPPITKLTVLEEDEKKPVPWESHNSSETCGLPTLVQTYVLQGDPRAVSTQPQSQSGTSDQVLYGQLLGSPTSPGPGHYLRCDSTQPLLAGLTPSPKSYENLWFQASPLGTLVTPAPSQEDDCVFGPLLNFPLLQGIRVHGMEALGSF


Legend:
[1] = system: PKCδVIII and Bcl2 expressed in THP-1 monocytic cells; assay: Western blot of PKCδVIII and Bcl2 in THP-1 monocytic cells; format: cell-based, human; conditions: THP-1, G-CSF 200 ng/mL (10.6 nM), 24 h
Method: (§1) In addition, a set of flasks were co-incubated with the combination of G-CSF and 3 concentrations of test drug. Whole cell lysates ([…]) were separated on 10% polyacrylamide gel electrophoresis-SDS (PAGE-SDS). Proteins were electrophoretically transferred to nitrocellulose membranes, blocked with 5% nonfat milk prepared on Tris buffered saline containing 0.1% Tween 20, washed and incubated with a polyclonal antibody against either Bcl2 (Cell Signaling, Danvers, Mass.) or PKCδVIII-specific polyclonal antibody (Jiang, K., et al. Biochemistry 2008, 47, 787-797). The house keeping gene GAPDH was used as an internal standard. Following incubation with anti-rabbit IgG-HRP, enhanced chemiluminesence (Pierce™, Thermo Scientific, Walthahm, Mass.) was used for detection and the gels were analyzed using UN-SCAN-IT™ software (Silk Scientific, Inc., Orem, Utah).
(§2) Statistical analysis. Densitometric results from Western blots were analyzed with two-tailed t-tests when only two groups were compared. In other analyses where 3 groups were compared, one-way ANOVA followed by t-tests with Dunnett's corrections for multiple comparisons was utilized. All data was presented as mean±SEM. All statistical analysis of data was done via PRISM4 or PRISM5 statistical analysis software (GraphPad Prism, La Jolla, Calif.). Neurohistologic analyses are performed using ANOVA. All comparisons were considered significant at level of P<0.05.

[2] = system: PKCδVIII and Bcl2 expressed in SH-SY5Y neuronal cells; assay: Western blot of PKCδVIII and Bcl2 in SH-SY5Y neuronal cells; format: cell-based, human; conditions: SH-SY5Y, G-CSF 100 ng/mL (5.3 nM), 24 h
Method: as §1, with “THP-1 cells or SH-SY5Y cells 3×10^6 cells in 5 mL media in a 25 cm^2 flask were treated with 100 ng/mL G-CSF or three different concentrations of the test drug for 24 h. In addition,” for “In addition,”
as §2

[3] = system: mouse model of TBI; conditions: earlier G-CSF work stated as background to Example 6; cited from earlier work
[4] = molecular target: T1, G-CSF receptor on monocytic (THP-1) cells; assay: Saturation binding of [125I]-G-CSF to its receptor on THP-1 cells; conditions: [125I]-G-CSF specific binding
From the text: (§3) Two human cell lines were chosen for cell culture studies. One was a human monocyte cell line that is representative of the peripheral immune system, THP-1, which grows in suspension. The other cell line was a human neuroblastoma cell line (SH-SY5Y) which is a mixed cell line although only adherent cells were utilized (Xie, H. R., et al. Chin. Med. J. (Engl) 2010, 123, 1086-92). Both cell lines are known to express the G-CSF-R. Both cell lines were purchased from ATCC (Manassas, Va.). THP-1 cells were cultured in RPMI-1640 medium supplemented with 10% fetal bovine serum (FBS) plus 1% penicillin-streptomycin (ATCC, Manassas, Va.) in a humidified atmosphere of 5% CO2 at 37° C. […]
(§4) Binding of [^125I]-G-CSF was measured using previously described method (Kondo, S., et al. Eur. J. Haematol. 1991, 46, 223-30) with some modifications (Pennington, A., et al. Alzheimer's Disease and Parkinsonism 2013, 3, 121). […] Nonspecific binding of [^125I]-G-CSF was measured by incubations in the presence of a 100-fold molar excess of unlabeled G-CSF. […] Bound and free ligand activities were counted after cutting tubes in two pieces and placing the tips and tops, respectively into separate scintillation vials. […] The specific binding was determined from the amount of bound [^125I]-G-CSF blocked by competition with excess unlabeled G-CSF. […]

[5] = molecular target: T2, G-CSF receptor on neuronal (SH-SY5Y) cells; assay: Saturation binding of [125I]-G-CSF to its receptor on SH-SY5Y cells; conditions: [125I]-G-CSF specific binding
From the text: as §3, §4

| Bmax [4] [pM] | Hill Coefficient [4] | Bmax [5] [pM] | Hill Coefficient [5] | Molecule | Bcl2 expression [1] | PKCδVIII expression [1] | Bcl2 expression [2] | PKCδVIII expression [2] | recovery in the radial arm water maze (RAWM) [3] |
| --- | --- | --- | --- | --- | --- | --- | --- | --- | --- |
|  |  |  |  | G-CSF: Granulocyte-colony stimulating factor, a glycoprotein cytokine; natural ligand of G-CSF-R; SEQ ID NO: 1 (protein, listed as Homo sapiens) MAGPATQSPMKLMALQLLLWHSALWTVQEATPLGPASSLPQSFLLKCLEQVRKIQGDGAALQEKLVSECATYKLCHPEELVLLGHSLGIPWAPLSSCPSQALQLAGCLSQLHSGLFLYQGLLQALEGISPELGPTLDTLQLDVADFATTIWQQMEELGMAPALQPTQGAMPAFASAFQRRAGGVLVASHLQSFLEVSYRVLRHLAQP | increased the expression of PKCδVIII and Bcl2 | increased the expression of PKCδVIII and Bcl2 | much greater at equivalent concentrations; also recorded: increased | much greater at equivalent concentrations; also recorded: increased | significantly promoted recovery |
| 901 | 1.19 | 4826 | 2.7 and 2.71 | [^125I]-G-CSF: radio-labeled G-CSF (specific activity 46.55 TBq/mmol) purchased from Perkin Elmer (protein, 125I radiolabel (specific activity 46.55 TBq/mmol); labelled residue not stated) TPLGPASSLPQSFLLKCLEQVRKIQGDGAALQEKLVSECATYKLCHPEELVLLGHSLGIPWAPLSSCPSQALQLAGCLSQLHSGLFLYQGLLQALEGISPELGPTLDTLQLDVADFATTIWQQMEELGMAPALQPTQGAMPAFASAFQRRAGGVLVASHLQSFLEVSYRVLRHLAQP |  |  |  |  |  |
